Results taken from article PMC7934869 (2021).

Legend:
[1] = target: T1, recombinant Plasmodium falciparum circumsporozoite protein (rPfCSP) (Plasmodium falciparum 3D7, UniProt Q7K740 19-374); test: ITC; first site (KD1)
[2] = target: T1, recombinant Plasmodium falciparum …; test: ITC; second site (KD2)

T1 sequence (Q7K740 19-374): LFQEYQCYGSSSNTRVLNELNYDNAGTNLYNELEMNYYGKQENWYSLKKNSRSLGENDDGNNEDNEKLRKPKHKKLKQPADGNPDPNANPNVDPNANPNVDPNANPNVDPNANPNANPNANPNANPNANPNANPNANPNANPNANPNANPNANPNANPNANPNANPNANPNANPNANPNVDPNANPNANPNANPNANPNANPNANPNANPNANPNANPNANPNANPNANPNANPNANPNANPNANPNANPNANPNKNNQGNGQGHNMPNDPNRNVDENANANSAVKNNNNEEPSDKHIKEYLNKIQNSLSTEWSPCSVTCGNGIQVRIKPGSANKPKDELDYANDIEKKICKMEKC

B1: CIS43 human monoclonal antibody (antibody, V domains shown)
VH: QVQLVQSGAEVKKPGASVKVSCKASGYTFTSYAIHWVRQAPGQRLEWMGWIKAGNGNTRYSQKFQDRVTITRDTSTTTAYMELSSLRSEDTAVYYCALLTVLTPDDAFDIWGQGTMVTVSS
VL: not shown
B1 showed a Kd [1] of 7.9 nM and a Kd [2] of 42 nM.
